Assay results reported in PMC6802120, “Concatenation of 14-3-3 with partner phosphoproteins as a tool to study their interaction” (Scientific Reports, 2019).
Values joined by “and” are separate entries in the source; they are usually repeats but may differ in a detail not shown here. Identical values can stand only once.

How the values were obtained:
[1] = target: 14-3-3σ∆C (C-terminally truncated human 14-3-3σ, residues 1-231) (human) (UniProt P31947); assay: SEC; fluorescence-assisted size-exclusion spectrochromatography, Superdex 200 Increase 5/150, SEC buffer; detection at 230 nm absorbance and Trp fluorescence (excitation 298 nm, emission 360 nm); proteins alone and mixed
[2] = target: the molecule itself; assay: SEC; Superdex 200 Increase 5/150, 0.45 ml/min; 20 mM Tris-HCl pH 7.6, 150 mM NaCl, 0.5 mM EDTA, 1 mM DTT, 3% glycerol; low loaded protein concentration; apparent MW from column calibration
[3] = target: the molecule itself; assay: SEC; same column and buffer as a1; higher loaded protein concentrations (second peak appears); apparent MW from column calibration; dimer to tetramer
[4] = target: the molecule itself; assay: SEC; fluorescence-assisted size-exclusion spectrochromatography, Superdex 200 Increase 5/150, SEC buffer; detection at 230 nm absorbance and Trp fluorescence (excitation 298 nm, emission 360 nm); proteins alone and mixed

Molecule | stoichiometry N [1] | stoichiometry N [2] | stoichiometry N [3] | stoichiometry N [4]
14-3-3σ∆C (C-terminally truncated human 14-3-3σ, residues 1-231) (from UniProt P31947 1-231) (domain or fragment) | 2 | – | – | –
14-3-3-pB6 chimera (PKA-phosphorylated chimera of human 14-3-3σ(clu3)∆C and HSPB6 residues 12-153) (other, phosphoserine at Ser16 of the HSPB6 part (phosphorylated by PKA), three extra residues left at the N-terminus after 3C cleavage; human 14-3-3σ, C-terminally truncated (14-3-3σ∆C), residues 1-231, with the surface entropy reduction 'clu3' replacements; linker; the full chimera 'followed the same principles' as CH1; human small heat shock protein HSPB6, residues 12-153 (out of 160): Ser16 phosphopeptide region, rest of the NTD and the α-crystallin domain; Could …) GPHMERASLIQKAKLAEQAERYEDMAAFMKGAVEKGEELSCEERNLLSVAYKNVVGGQRAAWRVLSSIEQKSNEEGSAAAGPEVREYREKVETELQGVCDTVLGLLDSHLIKEAGDAESRVFYLKMKGDYYRYLAEVATGDDKKRIIDSARSAYQEAMDISKKEMPPTNPIRLGLALNFSVFHYEIANSPEEAISLAKTTFDEAMADLHTLSEDSYKDSTLIMQLLRDNLTLWTGSGSLRRASAPLPGLSAPGRLFDQRFGEGLLEAELAALCPTTLAPYYLRAPSVALPVAQVPTDPGHFSVLLDVKHFSPEEIAVKVVGEHVEVHARHEERPDEHGFVAREFHRRYRLPPGVDPAAVTSALSPEGVLSIQAAPASAQA | – | 2 | 4 | –
pCH1 (phosphorylated peptidic chimera of 14-3-3σ(clu3)∆C with the HSPB6 phosphopeptide, residues 12-19) (other, human, phosphoserine at Ser16 of the HSPB6 peptide (phosphorylated by PKA), three extra residues left at the N-terminus after 3C cleavage; human 14-3-3σ, C-terminally truncated, residues 1-231, with the 'clu3' replacements; linker; also called phosphorylated CH1; 14-3-3-phosphopeptide chimera; not shown: His6, N-terminal, cleaved) GPHMERASLIQKAKLAEQAERYEDMAAFMKGAVEKGEELSCEERNLLSVAYKNVVGGQRAAWRVLSSIEQKSNEEGSAAAGPEVREYREKVETELQGVCDTVLGLLDSHLIKEAGDAESRVFYLKMKGDYYRYLAEVATGDDKKRIIDSARSAYQEAMDISKKEMPPTNPIRLGLALNFSVFHYEIANSPEEAISLAKTTFDEAMADLHTLSEDSYKDSTLIMQLLRDNLTLWTGSGSLRRASAPL | – | – | – | 4 and 2
unphosphorylated 14-3-3-B6 chimera (human 14-3-3σ(clu3)∆C and HSPB6 residues 12-153) (other, three extra residues left at the N-terminus after 3C cleavage; human 14-3-3σ, C-terminally truncated (14-3-3σ∆C), residues 1-231, with the 'clu3' replacements; linker; the full chimera 'followed the same principles' as CH1; human small heat shock protein HSPB6, residues 12-153 (out of 160); also called unphosphorylated chimera; unphosphorylated version; source: E. coli BL21(DE3) without PKA, …) GPHMERASLIQKAKLAEQAERYEDMAAFMKGAVEKGEELSCEERNLLSVAYKNVVGGQRAAWRVLSSIEQKSNEEGSAAAGPEVREYREKVETELQGVCDTVLGLLDSHLIKEAGDAESRVFYLKMKGDYYRYLAEVATGDDKKRIIDSARSAYQEAMDISKKEMPPTNPIRLGLALNFSVFHYEIANSPEEAISLAKTTFDEAMADLHTLSEDSYKDSTLIMQLLRDNLTLWTGSGSLRRASAPLPGLSAPGRLFDQRFGEGLLEAELAALCPTTLAPYYLRAPSVALPVAQVPTDPGHFSVLLDVKHFSPEEIAVKVVGEHVEVHARHEERPDEHGFVAREFHRRYRLPPGVDPAAVTSALSPEGVLSIQAAPASAQA | – | 2 | 4 | –
HSPB6 ACD (α-crystallin domain, residues 72-149) (domain or fragment, human, UniProt O14558 72-149, looked up, human small heat shock protein HSPB6, α-crystallin domain, residues 72-149; also called ACD dimer; isolated ACD) GHFSVLLDVKHFSPEEIAVKVVGEHVEVHARHEERPDEHGFVAREFHRRYRLPPGVDPAAVTSALSPEGVLSIQAAPA | – | – | – | 2
